Columns and labels:
HeLa Kyoto [1] = experiment: solubility in G1/S (NP-40 vs SDS abundance) (log2 ratio); higher = more soluble; conditions: cell cycle stage: G1/S
HeLa Kyoto [2] = experiment: thermal stability score vs G1/S (z-score of summed log2 fold changes over temperatures); higher = more thermally stable than in G1/S
HeLa Kyoto [3] = experiment: solubility change mitosis vs G1/S (difference of NP-40 vs SDS log2 ratios) (log2 ratio difference); higher = more soluble in mitosis
HeLa Kyoto [4] = experiment: melting temperature (median over replicates), in situ; higher = more thermally stable
[5] = cell cycle stage: early G1 (4.5 h after nocodazole release)
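For melting temperature (median over replicates), in situ in this document: HeLa Kyoto cells synchronized by double thymidine or nocodazole block, proteins quantified by TMT10plex mass spectrometry, three independent biological replicates.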
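For solubility change mitosis vs G1/S (difference of NP-40 vs SDS log2 ratios) in this document: synchronized HeLa Kyoto cells (double thymidine block for G1/S, nocodazole release for mitosis), protein amounts in NP-40 versus SDS lysates quantified by mass spectrometry, three biological replicates.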
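For solubility in G1/S (NP-40 vs SDS abundance) in this document: HeLa Kyoto cells arrested at G1/S by double thymidine block, proteins quantified by TMT10plex mass spectrometry in mild NP-40 versus SDS extracts, three biological replicates.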
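For thermal stability score vs G1/S (z-score of summed log2 fold changes over temperatures) in this document: synchronized HeLa Kyoto cells, proteins quantified by TMT10plex mass spectrometry, three biological replicates, mitosis taken 0.5 h after nocodazole release, G1/S directly after double thymidine block.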

Sequence | solubility in G1/S (log2) (HeLa Kyoto [1]) | thermal stability score (HeLa Kyoto [2]; [5]) | thermal stability score (HeLa Kyoto [2]; cell cycle stage: mitosis) | solubility change mitosis (log2) (HeLa Kyoto [3]) | melting temperature (HeLa Kyoto [4]; cell cycle stage: G1/S) [°C] | melting temperature (HeLa Kyoto [4]; cell cycle stage: mitosis) [°C]
MLLWPLLLLLLLLPTLALLRQQRSQDARLSWLAGLQHRVAWGALVWAATWQRRRLEQSTLHVHQSQQQALRWCLQGAQRPHCSLRRSTDISTFRNHLPLTKASQTQQEDSGEQPLPPTSNQDLGEASLQATLLGLAALNKAYPEVLAQGRTARVTLTSPWPRPLPWPGNTLGQVGTPGTKDPRALLLDALRSPGLRALEAGTAVELLDVFLGLETDGEELAGAIAAGNPGAPLRERAAELREALEQGPRGLALRLWPKLQVVVTLDAGGQAEAVAALGALWCQGLAFFSPAYAASGGVLGLNLQPEQPHGLYLLPPGAPFIELLPVKEGTQEEAASTLLLAEAQQGKEYELVLTDRASLTRCRLGDVVRVVGAYNQCPVVRFICRLDQTLSVRGEDIGEDLFSEALGRAVGQWAGAKLLDHGCVESSILDSSAGSAPHYEVFVALRGLRNLSEENRDKLDHCLQEASPRYKSLRFWGSVGPARVHLVGQGAFRALRAALAACPSSPFPPAMPRVLRHRHLAQCLQERVVS [GHDC] | -0.104 | 0.585 | 1.25 | -0.154 | 53.7 | 55.1
MLMLFVFGVLLHEVSLSGQNEAPPNTHSIPGEPLYNYASIRLPEEHIPFFLHNNRHIATVCRKDSLCPYKKHLEKLKYCWGYEKSCKPEFRFGYPVCSYVDMGWTDTLESAEDIFWKQADFGYARERLEEMHVLCQPKETSDSSLVCSRYLQYCRATNLYLDLRNIKRNHDRFKEDFFQSGEIGGHCKLDIRTLTSEGQRKSPLQSWFAELQSYTQLNFRPIEDAKCDIVIEKPTYFMKLDAGVNMYHHFCDFINLYITQHVNNSFSTDVYIVMWDTSSYGYGDLFSDTWNAFTDYDVIHLKTYDSKRVCFKEAVFSLLPRMRYGLFYNTPLISGCQNTGLFRAFAQHVLHRLNITQEGPKDGKIRVTILARSTEYRKILNQNELVNALKTVSTFEVQIVDYKYRELGFLDQLRITHNTDIFIGMHGAGLTHLLFLPDWAAVFELYNCEDERCYLDLARLRGVHYITWRRQNKVFPQDKGHHPTLGEHPKFTNYSFDVEEFMYLVLQAADHVLQHPKWPFKKKHDEL [EOGT] | -0.298 | 2.26 | 3.42 | -0.00851 | 53.3 | 54.9
MLPARCARLLTPHLLLVLVQLSPARGHRTTGPRFLISDRDPQCNLHCSRTQPKPICASDGRSYESMCEYQRAKCRDPTLGVVHRGRCKDAGQSKCRLERAQALEQAKKPQEAVFVPECGEDGSFTQVQCHTYTGYCWCVTPDGKPISGSSVQNKTPVCSGSVTDKPLSQGNSGRKDDGSKPTPTMETQPVFDGDEITAPTLWIKHLVIKDSKLNNTNIRNSEKVYSCDQERQSALEEAQQNPREGIVIPECAPGGLYKPVQCHQSTGYCWCVLVDTGRPLPGTSTRYVMPSCESDARAKTTEADDPFKDRELPGCPEGKKMEFITSLLDALTTDMVQAINSAAPTGGGRFSEPDPSHTLEERVVHWYFSQLDSNSSNDINKREMKPFKRYVKKKAKPKKCARRFTDYCDLNKDKVISLPELKGCLGVSKEGRLV [SMOC1] | 0.221 | -1.94 | -1.17 | -0.0568 |  | 54.9
MLPLSIKDDEYKPPKFNLFGKISGWFRSILSDKTSRNLFFFLCLNLSFAFVELLYGIWSNCLGLISDSFHMFFDSTAILAGLAASVISKWRDNDAFSYGYVRAEVLAGFVNGLFLIFTAFFIFSEGVERALAPPDVHHERLLLVSILGFVVNLIGIFVFKHGGHGHSHGSGHGHSHSLFNGALDQAHGHVDHCHSHEVKHGAAHSHDHAHGHGHFHSHDGPSLKETTGPSRQILQGVFLHILADTLGSIGVIASAIMMQNFGLMIADPICSILIAILIVVSVIPLLRESVGILMQRTPPLLENSLPQCYQRVQQLQGVYSLQEQHFWTLCSDVYVGTLKLIVAPDADARWILSQTHNIFTQAGVRQLYVQIDFAAM [SLC30A7] | 0.101 | 0.255 | -1.45 | -0.278 | 57.8 | 55.4
MLRRILQRTPGRVGSQGSDLDSSATPINTVDVNNESSSEGFICPQCMKSLGSADELFKHYEAVHDAGNDSGHGGESNLALKRDDVTLLRQEVQDLQASLKEEKWYSEELKKELEKYQGLQQQEAKPDGLVTDSSAELQSLEQQLEEAQTENFNIKQMKDLFEQKAAQLATEIADIKSKYDEERSLREAAEQKVTRLTEELNKEATVIQDLKTELLQRPGIEDVAVLKKELVQVQTLMDNMTLERERESEKLKDECKKLQSQYASSEATISQLRSELAKGPQEVAVYVQELQKLKSSVNELTQKNQTLTENLLKKEQDYTKLEEKHNEESVSKKNIQATLHQKDLDCQQLQSRLSASETSLHRIHVELSEKGEATQKLKEELSEVETKYQHLKAEFKQLQQQREEKEQHGLQLQSEINQLHSKLLETERQLGEAHGRLKEQRQLSSEKLMDKEQQVADLQLKLSRLEEQLKEKVTNSTELQHQLDKTKQQHQEQQALQQSTTAKLREAQNDLEQVLRQIGDKDQKIQNLEALLQKSKENISLLEKEREDLYAKIQAGEGETAVLNQLQEKNHTLQEQVTQLTEKLKNQSESHKQAQENLHDQVQEQKAHLRAAQDRVLSLETSVNELNSQLNESKEKVSQLDIQIKAKTELLLSAEAAKTAQRADLQNHLDTAQNALQDKQQELNKITTQLDQVTAKLQDKQEHCSQLESHLKEYKEKYLSLEQKTEELEGQIKKLEADSLEVKASKEQALQDLQQQRQLNTDLELRATELSKQLEMEKEIVSSTRLDLQKKSEALESIKQKLTKQEEEKKILKQDFETLSQETKIQHEELNNRIQTTVTELQKVKMEKEALMTELSTVKDKLSKVSDSLKNSKSEFEKENQKGKAAILDLEKTCKELKHQLQVQMENTLKEQKELKKSLEKEKEASHQLKLELNSMQEQLIQAQNTLKQNEKEEQQLQGNINELKQSSEQKKKQIEALQGELKIAVLQKTELENKLQQQLTQAAQELAAEKEKISVLQNNYEKSQETFKQLQSDFYGRESELLATRQDLKSVEEKLSLAQEDLISNRNQIGNQNKLIQELKTAKATLEQDSAKKEQQLQERCKALQDIQKEKSLKEKELVNEKSKLAEIEEIKCRQEKEITKLNEELKSHKLESIKEITNLKDAKQLLIQQKLELQGKADSLKAAVEQEKRNQQILKDQVKKEEEELKKEFIEKEAKLHSEIKEKEVGMKKHEENEAKLTMQITALNENLGTVKKEWQSSQRRVSELEKQTDDLRGEIAVLEATVQNNQDERRALLERCLKGEGEIEKLQTKVLELQRKLDNTTAAVQELGRENQSLQIKHTQALNRKWAEDNEVQNCMACGKGFSVTVRRHHCRQCGNIFCAECSAKNALTPSSKKPVRVCDACFNDLQG [EEA1] | 0.678 | -3.01 | -4.2 | 0.0149 | 57.3 | 58
MLRRRGSPGMGVHVGAALGALWFCLTGALEVQVPEDPVVALVGTDATLCCSFSPEPGFSLAQLNLIWQLTDTKQLVHSFAEGQDQGSAYANRTALFPDLLAQGNASLRLQRVRVADEGSFTCFVSIRDFGSAAVSLQVAAPYSKPSMTLEPNKDLRPGDTVTITCSSYQGYPEAEVFWQDGQGVPLTGNVTTSQMANEQGLFDVHSILRVVLGANGTYSCLVRNPVLQQDAHSSVTITPQRSPTGAVEVQVPEDPVVALVGTDATLRCSFSPEPGFSLAQLNLIWQLTDTKQLVHSFTEGRDQGSAYANRTALFPDLLAQGNASLRLQRVRVADEGSFTCFVSIRDFGSAAVSLQVAAPYSKPSMTLEPNKDLRPGDTVTITCSSYRGYPEAEVFWQDGQGVPLTGNVTTSQMANEQGLFDVHSVLRVVLGANGTYSCLVRNPVLQQDAHGSVTITGQPMTFPPEALWVTVGLSVCLIALLVALAFVCWRKIKQSCEEENAGAEDQDGEGEGSKTALQPLKHSDSKEDDGQEIA [CD276] | 0.244 | -2.08 | -3.76 | -0.0859 | 59 | 57.1
MLRSVWNFLKRHKKKCIFLGTVLGGVYILGKYGQKKIREIQEREAAEYIAQARRQYHFESNQRTCNMTVLSMLPTLREALMQQLNSESLTALLKNRPSNKLEIWEDLKIISFTRSTVAVYSTCMLVVLLRVQLNIIGGYIYLDNAAVGKNGTTILAPPDVQQQYLSSIQHLLGDGLTELITVIKQAVQKVLGSVSLKHSLSLLDLEQKLKEIRNLVEQHKSSSWINKDGSKPLLCHYMMPDEETPLAVQACGLSPRDITTIKLLNETRDMLESPDFSTVLNTCLNRGFSRLLDNMAEFFRPTEQDLQHGNSMNSLSSVSLPLAKIIPIVNGQIHSVCSETPSHFVQDLLTMEQVKDFAANVYEAFSTPQQLEK [PEX3] | 0.0923 | 0.401 | 0.184 | -0.208 | 50 | 49
MLRWLIGGGREPQGLAEKSPLQTIGEEQTQNPYTELLVLKAHHDIVRFLVQLDDYRFASAGDDGIVVVWNAQTGEKLLELNGHTQKITAIITFPSLESCEEKNQLILTASADRTVIVWDGDTTRQVQRISCFQSTVKCLTVLQRLDVWLSGGNDLCVWNRKLDLLCKTSHLSDTGISALVEIPKNCVVAAVGKELIIFRLVAPTEGSLEWDILEVKRLLDHQDNILSLINVNDLSFVTGSHVGELIIWDALDWTMQAYERNFWDPSPQLDTQQEIKLCQKSNDISIHHFTCDEENVFAAVGRGLYVYSLQMKRVIACQKTAHDSNVLHVARLPNRQLISCSEDGSVRIWELREKQQLAAEPVPTGFFNMWGFGRVSKQASQPVKKQQENATSCSLELIGDLIGHSSSVEMFLYFEDHGLVTCSADHLIILWKNGERESGLRSLRLFQKLEENGDLYLAV [WDR41] | 0.0666 | -1.29 | -1.46 | -0.21 | 52.8 | 53.4
MLSPQRVAAAASRGADDAMESSKPGPVQVVLVQKDQHSFELDEKALASILLQDHIRDLDVVVVSVAGAFRKGKSFILDFMLRYLYSQKESGHSNWLGDPEEPLTGFSWRGGSDPETTGIQIWSEVFTVEKPGGKKVAVVLMDTQGAFDSQSTVKDCATIFALSTMTSSVQIYNLSQNIQEDDLQQLQLFTEYGRLAMDEIFQKPFQTLMFLVRDWSFPYEYSYGLQGGMAFLDKRLQVKEHQHEEIQNVRNHIHSCFSDVTCFLLPHPGLQVATSPDFDGKLKDIAGEFKEQLQALIPYVLNPSKLMEKEINGSKVTCRGLLEYFKAYIKIYQGEDLPHPKSMLQATAEANNLAAAASAKDIYYNNMEEVCGGEKPYLSPDILEEKHCEFKQLALDHFKKTKKMGGKDFSFRYQQELEEEIKELYENFCKHNGSKNVFSTFRTPAVLFTGIVALYIASGLTGFIGLEVVAQLFNCMVGLLLIALLTWGYIRYSGQYRELGGAIDFGAAYVLEQASSHIGNSTQATVRDAVVGRPSMDKKAQ [ATL3] | -0.00471 | -0.0896 | 0.487 | -0.139 | 52.2 | 51.7
MLSRSRCVSRAFSRSLSAFQKGNCPLGRRSLPGVSLCQGPGYPNSRKVVINNSVFSVRFFRTTAVCKDDLVTVKTPAFAESVTEGDVRWEKAVGDTVAEDEVVCEIETDKTSVQVPSPANGVIEALLVPDGGKVEGGTPLFTLRKTGAAPAKAKPAEAPAAAAPKAEPTAAAVPPPAAPIPTQMPPVPSPSQPPSGKPVSAVKPTVAPPLAEPGAGKGLRSEHREKMNRMRQRIAQRLKEAQNTCAMLTTFNEIDMSNIQEMRARHKEAFLKKHNLKLGFMSAFVKASAFALQEQPVVNAVIDDTTKEVVYRDYIDISVAVATPRGLVVPVIRNVEAMNFADIERTITELGEKARKNELAIEDMDGGTFTISNGGVFGSLFGTPIINPPQSAILGMHGIFDRPVAIGGKVEVRPMMYVALTYDHRLIDGREAVTFLRKIKAAVEDPRVLLLDL [DLST] | 0.0922 | -2.5 | -3.04 | -0.0493 | 61.7 | 65.9
MLSRVVLSAAATAAPSLKNAAFLGPGVLQATRTFHTGQPHLVPVPPLPEYGGKVRYGLIPEEFFQFLYPKTGVTGPYVLGTGLILYALSKEIYVISAETFTALSVLGVMVYGIKKYGPFVADFADKLNEQKLAQLEEAKQASIQHIQNAIDTEKSQQALVQKRHYLFDVQRNNIAMALEVTYRERLYRVYKEVKNRLDYHISVQNMMRRKEQEHMINWVEKHVVQSISTQQEKETIAKCIADLKLLAKKAQAQPVM [ATP5F1] | 0.102 | -0.0719 | -1.2 | 0.116 | 52.8 | 53.8
